From patent US20170342107A1 (REGENTS OF THE UNIVERSITY OF MINNESOTA, published 2017)
Where two headings read alike, the source gives them in different places. Square brackets hold non-standard residues; d marks the D form. * marks the point of attachment. Bip = N[C@@H](Cc1ccc(-c2ccccc2)cc1)C(=O)O; Phe(4-I) = N[C@@H](Cc1ccc(I)cc1)C(=O)O; dPhe(4-I) = N[C@H](Cc1ccc(I)cc1)C(=O)O; 2Nal = N[C@@H](Cc1ccc2ccccc2c1)C(=O)O; d2Nal = N[C@H](Cc1ccc2ccccc2c1)C(=O)O; Bta = N[C@@H](Cc1csc2ccccc12)C(=O)O; Tic = O=C(O)[C@@H]1Cc2ccccc2CN1; dTic = O=C(O)[C@H]1Cc2ccccc2CN1; For = O=C*

Legend:
[1] = target: T1, mouse melanocortin-3 receptor (mouse, UniProt P33033 1-323); experiment: cell-based or functional assay
[2] = target: T2, mouse melanocortin-1 receptor (mouse, UniProt Q01727 1-315); experiment: cell-based or functional assay
[3] = target: T3, mouse melanocortin-4 receptor (mouse, UniProt P56450 1-332); experiment: cell-based or functional assay
[4] = target: T4, mouse melanocortin-5 receptor (mouse, UniProt P41149 1-325); experiment: cell-based or functional assay
[5] = target: T1, mouse melanocortin-3 receptor; experiment: cell-based or functional assay; remark: listed apart in the source
[6] = target: T3, mouse melanocortin-4 receptor; experiment: cell-based or functional assay; remark: listed apart in the source
[7] = target: T3, mouse melanocortin-4 receptor; experiment: cell-based or functional assay; remark: listed apart in the source
[8] = target: T1, mouse melanocortin-3 receptor; experiment: cell-based or functional assay; remark: listed apart in the source
[9] = target: T4, mouse melanocortin-5 receptor; experiment: cell-based or functional assay; remark: listed apart in the source
[10] = target: T2, mouse melanocortin-1 receptor; experiment: cell-based or functional assay; remark: listed apart in the source
[11] = target: T4, mouse melanocortin-5 receptor; experiment: cell-based or functional assay; remark: listed apart in the source
[12] = target: T1, mouse melanocortin-3 receptor; experiment: 125I-NDP-MSH competitive displacement, HEK293 cells stably expressing mMC3R; negative = more potent than control
Source text: (§1) A typical experiment utilized a 12-well format.

[13] = target: T3, mouse melanocortin-4 receptor; experiment: 125I-NDP-MSH competitive displacement, HEK293 cells stably expressing mMC4R; negative = more potent than control
Source text: as §1

[14] = target: T1, mouse melanocortin-3 receptor; experiment: 125I-NDP-MSH competitive displacement, HEK293 cells stably expressing mMC3R
Source text: as §1

T4 sequence (P41149 whole entry): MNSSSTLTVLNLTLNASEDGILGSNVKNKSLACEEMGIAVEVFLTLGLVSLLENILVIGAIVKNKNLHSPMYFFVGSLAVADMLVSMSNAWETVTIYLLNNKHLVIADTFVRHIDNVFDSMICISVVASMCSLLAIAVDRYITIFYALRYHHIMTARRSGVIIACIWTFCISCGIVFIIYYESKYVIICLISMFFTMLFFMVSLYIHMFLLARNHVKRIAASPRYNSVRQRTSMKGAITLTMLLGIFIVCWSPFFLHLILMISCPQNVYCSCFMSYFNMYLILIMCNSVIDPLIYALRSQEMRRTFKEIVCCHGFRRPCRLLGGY
T2 sequence (Q01727 whole entry): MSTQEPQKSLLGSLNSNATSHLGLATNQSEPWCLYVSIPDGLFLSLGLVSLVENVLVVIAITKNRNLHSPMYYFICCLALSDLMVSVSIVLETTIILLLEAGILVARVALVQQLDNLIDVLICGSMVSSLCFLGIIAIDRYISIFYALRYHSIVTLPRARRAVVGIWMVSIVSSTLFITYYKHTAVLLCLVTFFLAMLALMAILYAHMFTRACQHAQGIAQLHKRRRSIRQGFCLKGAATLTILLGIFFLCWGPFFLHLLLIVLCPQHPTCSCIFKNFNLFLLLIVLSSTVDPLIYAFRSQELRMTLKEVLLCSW
T1 sequence (P33033 whole entry): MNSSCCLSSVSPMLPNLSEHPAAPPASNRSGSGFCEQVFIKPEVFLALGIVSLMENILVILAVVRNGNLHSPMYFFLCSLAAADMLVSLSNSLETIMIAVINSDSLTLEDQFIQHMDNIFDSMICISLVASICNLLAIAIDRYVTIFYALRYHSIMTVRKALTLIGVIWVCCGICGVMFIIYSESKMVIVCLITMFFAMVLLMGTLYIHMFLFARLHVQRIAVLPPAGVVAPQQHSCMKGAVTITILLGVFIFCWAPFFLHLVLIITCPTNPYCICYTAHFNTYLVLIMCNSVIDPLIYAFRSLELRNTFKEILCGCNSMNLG
T3 sequence (P56450 whole entry): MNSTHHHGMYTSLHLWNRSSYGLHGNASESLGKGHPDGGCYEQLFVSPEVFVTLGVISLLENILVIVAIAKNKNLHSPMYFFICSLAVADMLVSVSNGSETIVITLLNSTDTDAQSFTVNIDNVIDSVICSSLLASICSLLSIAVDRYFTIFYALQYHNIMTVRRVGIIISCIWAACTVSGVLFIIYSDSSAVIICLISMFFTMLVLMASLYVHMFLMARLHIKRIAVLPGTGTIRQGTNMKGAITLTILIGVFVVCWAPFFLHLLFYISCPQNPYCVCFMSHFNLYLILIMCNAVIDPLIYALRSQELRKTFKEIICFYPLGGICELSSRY

Binder | Agonist, % of NDP-MSH maximal response [1] | Agonist, % of NDP-MSH maximal response [2] | Agonist, % of NDP-MSH maximal response [3] | Agonist, % of NDP-MSH maximal response [4] | further results
Ac-FR[dPhe(4-I)][Bip]-NH2 [SKY4-48-7, Ac-Phe-Arg-(pI)DPhe-Bip-NH2] | 30 % @ 100 µM | 67 % @ 100 µM | – | – | –
For-[dF][Phe(4-I)][dR][dH]-NH2 (SMILES N=C(N)NCCC[C@@H](NC(=O)[C@H](Cc1ccc(I)cc1)NC(=O)[C@@H](Cc1ccccc1)NC=O)C(=O)N[C@H](Cc1c[nH]cn1)C(N)=O) [SKY5-142-A, For-DPhe-(pI)Phe-DArg-DHis-NH2] | – | – | – | – | pA2 (antagonist) [5]: 6.7 pA2; Agonist, % of NDP-MSH maximal response [6]: 47 % @ 100 µM; Antagonist Ki [7]: > 3.1 µM
Ac-HR[dPhe(4-I)][d2Nal]-NH2 [SKY4-48-43, Ac-His-Arg-(pI)DPhe-DNal(2')-NH2] | – | – | 50 % @ 100 µM | 47 % @ 100 µM | –
Ac-[Bta]R[dPhe(4-I)][d2Nal]-NH2 [SKY4-48-45, Ac-3Bal-Arg-(pI)DPhe-DNal(2')-NH2] | 34 % @ 100 µM | 36 % @ 100 µM | 38 % @ 100 µM | 41 % @ 100 µM | –
Ac-HR[dPhe(4-I)][Bip]-NH2 [SKY4-48-3, Ac-His-Arg-(pI)DPhe-Bip-NH2] | 53 % @ 100 µM | – | 43 % @ 100 µM | – | –
Ac-SYSMEHRFWGKPV-NH2 [SKY2-125-5, (Arg7, Phe8) α-MSH, Ac-Ser-Tyr-Ser-Met-Glu-His-Arg-Phe-Trp-Gly-Lys-Pro-Val-NH2] | – | – | – | – | fold decreased agonist potency against α-MSH [8]: 45000 fold
Ac-[dW][dR]F[dH]-NH2 (SMILES CC(=O)N[C@H](Cc1c[nH]c2ccccc12)C(=O)N[C@H](CCCNC(=N)N)C(=O)N[C@@H](Cc1ccccc1)C(=O)N[C@H](Cc1c[nH]cn1)C(N)=O) [SKY5-121, Ac-DTrp-DArg-Phe-DHis-NH2] | – | – | – | – | Agonist, % of NDP-MSH maximal response [9]: 29 % @ 100 µM
Ac-HR[dPhe(4-I)][Tic]-NH2 [SKY6-24-2, Ac-His-Arg-(pI)DPhe-Tic-NH2] | – | – | – | – | fold increase in agonist potency against SKY5-146-7 [10]: 380 fold; fold increase in agonist potency against SKY5-146-7 [11]: 40 fold
Ac-RR[dPhe(4-I)][Bta]-NH2 [SKY4-48-10, Ac-Arg-Arg-(pI)DPhe-3Bal-NH2] | – | – | 24 % @ 100 µM | – | Fold Diff. (IC50 against SKY4-48-1) [12]: -52 fold; Fold Diff. (IC50 against SKY4-48-1) [13]: 1 fold
Ac-RR[dPhe(4-I)]F-NH2 (SMILES CC(=O)N[C@@H](CCCNC(=N)N)C(=O)N[C@@H](CCCNC(=N)N)C(=O)N[C@H](Cc1ccc(I)cc1)C(=O)N[C@@H](Cc1ccccc1)C(N)=O) [SKY4-48-26, Ac-Arg-Arg-(pI)DPhe-Phe-NH2] | – | – | – | – | Fold Diff. (IC50 against SKY4-48-1) [12]: -8 fold; Fold Diff. (IC50 against SKY4-48-1) [13]: 4 fold
Ac-FR[dPhe(4-I)][Bta]-NH2 [SKY4-48-15, Ac-Phe-Arg-(pI)DPhe-3Bal-NH2] | – | – | – | – | Fold Diff. (IC50 against SKY4-48-1) [12]: -9 fold; Fold Diff. (IC50 against SKY4-48-1) [13]: 7 fold; IC50 [14]: 5.35 µM
Ac-HR[dPhe(4-I)][Bta]-NH2 [SKY4-48-11, Ac-His-Arg-(pI)DPhe-3Bal-NH2] | – | – | 47 % @ 100 µM | – | Fold Diff. (IC50 against SKY4-48-1) [12]: -15 fold; Fold Diff. (IC50 against SKY4-48-1) [13]: 2 fold
For-[dTic][Phe(4-I)][dR][dH]-NH2 (SMILES N=C(N)NCCC[C@@H](NC(=O)[C@H](Cc1ccc(I)cc1)NC(=O)[C@H]1Cc2ccccc2CN1C=O)C(=O)N[C@H](Cc1c[nH]cn1)C(N)=O) [SKY5-148, For-DTic-(pI)Phe-DArg-DHis-NH2] | – | – | – | – | pA2 (antagonist) [5]: 6.8 pA2; Agonist, % of NDP-MSH maximal response [6]: 71 % @ 100 µM; pA2 (antagonist) [6]: 5.4 pA2; Antagonist Ki [7]: > 3.1 µM
Ac-[Tic]R[dPhe(4-I)][2Nal]-NH2 [SKY4-48-38, Ac-Tic-Arg-(pI)DPhe-Nal(2')-NH2] | – | 66 % @ 100 µM | – | 48 % @ 100 µM | –
Ac-HR[dPhe(4-I)]W-NH2 (SMILES CC(=O)N[C@@H](Cc1c[nH]cn1)C(=O)N[C@@H](CCCNC(=N)N)C(=O)N[C@H](Cc1ccc(I)cc1)C(=O)N[C@@H](Cc1c[nH]c2ccccc12)C(N)=O) [SKY5-146-7, Ac-His-Arg-(pI)DPhe-Trp-NH2] | – | – | – | – | Agonist, % of NDP-MSH maximal response [6]: 29 % @ 100 µM; pA2 (antagonist) [6]: 6 pA2
Ac-[Tic]R[dPhe(4-I)][Bta]-NH2 [SKY4-48-14, Ac-Tic-Arg-(pI)DPhe-3Bal-NH2] | – | 38 % @ 100 µM | – | – | –
Ac-[Bip]R[dPhe(4-I)][2Nal]-NH2 [SKY4-48-36, Ac-Bip-Arg-(pI)DPhe-Nal(2')-NH2] | – | 23 % @ 100 µM | – | 21 % @ 100 µM | –
Ac-[Bta]R[dPhe(4-I)][Bip]-NH2 [SKY4-48-5, Ac-3Bal-Arg-(pI)DPhe-Bip-NH2] | 51 % @ 100 µM | – | 35 % @ 100 µM | – | –
Ac-RR[dPhe(4-I)][Bip]-NH2 [SKY4-48-2, Ac-Arg-Arg-(pI)DPhe-Bip-NH2] | 45 % @ 100 µM | 44 % @ 100 µM | 32 % @ 100 µM | – | –

Now from value to binder, other results behind:

Agonist, % of NDP-MSH maximal response [1] | Agonist, % of NDP-MSH maximal response [2] | Agonist, % of NDP-MSH maximal response [3] | Agonist, % of NDP-MSH maximal response [4] | Binder | further results
40 % @ 100 µM | – | 37 % @ 100 µM | 43 % @ 100 µM | Ac-[d2Nal]R[dPhe(4-I)][d2Nal]-NH2 [SKY4-48-49, Ac-DNal(2')-Arg-(pI)DPhe-DNal(2')-NH2] | –
42 % @ 100 µM | – | 33 % @ 100 µM | 74 % @ 100 µM | Ac-[Tic]R[dPhe(4-I)][d2Nal]-NH2 [SKY4-48-46, Ac-Tic-Arg-(pI)DPhe-DNal(2')-NH2] | –
– | 39 % @ 100 µM | – | – | Ac-[Tic]R[dPhe(4-I)][Bip]-NH2 [SKY5-146-1, Ac-Tic-Arg-(pI)DPhe-Bip-NH2] | –
43 % @ 100 µM | – | 39 % @ 100 µM | 40 % @ 100 µM | Ac-[d2Nal]R[dPhe(4-I)][2Nal]-NH2 [SKY5-146-5, Ac-DNal(2')-Arg-(pI)DPhe-Nal(2')-NH2] | –
31 % @ 100 µM | 53 % @ 100 µM | – | 40 % @ 100 µM | Ac-[2Nal]R[dPhe(4-I)][d2Nal]-NH2 [SKY4-48-48, Ac-Nal(2')-Arg-(pI)DPhe-DNal(2')-NH2] | –
30 % @ 100 µM | – | 42 % @ 100 µM | – | Ac-[d2Nal]R[dPhe(4-I)][Bip]-NH2 [SKY5-146-2, Ac-DNal(2')-Arg-(pI)DPhe-Bip-NH2] | –
